Experimental data reported in US20030236190A1 (published 2003).
Positions of bridges follow the written chain, without caps; N, C: chain ends. No end group written: not given here.

B1: 20E2A-4-G11-IGFR (peptide)
peptide: MNVFVSFYDAIDQLVCQRIGC
modifications: not fully specified (N-terminus, C-terminus, bridges); cysteine pairing not given here
B2: B6Hα-1-23-IR (peptide)
peptide: GCITAENGAGDPFYHKLSELGGCS
modifications: disulfide 2-23 (inferred); not fully specified (N-terminus, C-terminus)
B3: B6Hα-3-ES-IR (peptide)
peptide: RCGDEEGWQENRRDDPFYHKLSELFGGC
modifications: disulfide 2-28 (inferred); not fully specified (N-terminus, C-terminus)
B4: 20E2A-3-A3-IGFR (peptide)
peptide: GHYFGSFYDAIDQLVAGMLPG
B5: B6Hα-3-F1-IR (peptide)
peptide: CSMAAVAEAGDDDDPFYHKLSELCQGS
B6: 26L-3-G5-IR (peptide)
peptide: AETSAQVGWQRLWSVWPGDHWSTLDPFYHKLSELLRESGA
modifications: not fully specified (residue 27, N-terminus, C-terminus); printed as AETSAQVGWQRLWSVWPGDHWSTLDP9YHKLSELLRESGA
B7: B6Hα-2-D8-IR (peptide)
peptide: SSETAKMVTGTRDDPFYHKLSELVQGS
B8: B6Hα-3-E6-IR (peptide)
peptide: CGAKMTGTPNDPFYHKLSELLQRG
B9: 20E2Bβ-3-C7-IR (peptide)
peptide: QSGSGDFYDWLSRLIRGNGDG
modifications: not fully specified (N-terminus, C-terminus)
B10: RB596 (peptide)
peptide: MQNDDGSLDESFYDWFERQLGHHHHHHPG
notes: F1 monomer with a His tag
B11: RB570 (peptide)
peptide: MQNDDGSLDESFYDWFERQLGEEEGGDHHHHHHPG
notes: F1 monomer with a His tag
B12: RB625 (peptide)
peptide: MADYKDDDDKWLDQEWAWVQCEVYGRGCPSQPPPPDITTHRADPQGSLDESFYDWFERQLGKKAAAGAPVPYPDPLEPRPG
notes: Recombinant F6-F1 dimer peptide with tags at both ends
B13: RB569 (peptide)
peptide: MGSLDESFYDWFERQLGEEEGGDHHHHHHPG
notes: F1 monomer with a His tag
B14: RB622 (peptide)
peptide: MADYKDDDDKWLDQEWAWVQCEVYGRGCPSTPKPPTPPPLSADGSLDESFYDWFERQLGKKAAAGAPVPYPDPLEPRPG
notes: as for B12
B15: RB626 (peptide)
peptide: MADYKDEIEAEWGRVRCLVYGRCVGGGGSGGSGGSGGSGSLDESFYDWFERQLGKKAAAGAPVPYPDPLEPRPG
notes: as for B12

target: T1, Insulin receptor (IR) prepared according to Bass et al., 1996 (human, UniProt P06213 28-956); assay: phage ELISA; ratio over background for IR divided by that for IGF-1R
T1 construct: extracellular domain; also called soluble IR (Bass construct); sIR-Fc; not shown: immunoglobulin heavy chain constant domains of the Bass chimera

Row | Binder | IR/IGF-1R ratio comparison [ratio]
1 | B1 | 0.4
2 | B2 | 0.3
3 | B3 | 0.3
4 | B4 | 0.5
5 | B5 | 0.5
6 | B6 | 0.7
7 | B7 | 0.3
8 | B8 | 0.5
9 | B9 | 0.5

target: T2, Soluble IGF-1R (UniProt P08069 31-935, limits assumed); assay: phage ELISA; ratio over background for IGF-1R divided by that for IR
T2 construct: extracellular domain; Bought reagent; also called sIGF-1R; insulin-like growth factor receptor

Row | Binder | IGF-1R/IR ratio comparison [ratio]
10 | B1 | 2.6
11 | B2 | 2.9
12 | B3 | 2.9
13 | B4 | 1.9
14 | B5 | 1.8
15 | B7 | 3
16 | B8 | 1.9
17 | B9 | 2

target: human insulin receptor (HIR) (human, UniProt P06213 28-1382, limits assumed); assay: HIR Kd, Table 14; competition with 125I-insulin on solubilised HIR (method of Example 3, not restated for this table)

Row | Binder | Kd [nM]
18 | B10 | 94
19 | B11 | 25
20 | B12 | 0.38
21 | B13 | 210
22 | B14 | 1
23 | B15 | 0.3

target: T1, Insulin receptor (IR) prepared …; assay: not given

Row | Binder | ratio over background, IR [ratio over background]
24 | B1 | 1.3
25 | B2 | 1.1
26 | B3 | 1
27 | B4 | 1.5
28 | B5 | 1.3
29 | B6 | 1.4
30 | B7 | 1
31 | B8 | 1.2
32 | B9 | 1.5

target: T2, Soluble IGF-1R; assay: not given

Row | Binder | ratio over background, IGF-1R [ratio over background]
33 | B1 | 3.3
34 | B2 | 3.2
35 | B3 | 2.9
36 | B4 | 3
37 | B5 | 2.4
38 | B7 | 3
39 | B8 | 2.3
40 | B9 | 3.1
